B1: Rab8A 6-176 (protein)
chain: DYLFKLLLIGDSGVGKTCVLFRFSEDAFNSTFISTIGIDFKIRTIELDGKRIKLQIWDTAGQERFRTITTAYYRGAMGIMLVYDITNEKSFDNIRNWIRNIEEHASADVEKMILGNKCDVNDKRQVSKERGEKLALDYGIKFMETSAKANINVENAFFTLARDIKAKMDKK
modifications: GppNHp-bound, C-terminal His6 tag on Rab8A
B2: Rab8A 6-176 (protein)
chain: B1 chain
modifications: phosphoSer111 Rab8A, GppNHp-bound, C-terminal His6 tag on Rab8A

Molecular target: T1, Mical-1 (Homo sapiens, UniProt Q8TDZ2)
T1 chain: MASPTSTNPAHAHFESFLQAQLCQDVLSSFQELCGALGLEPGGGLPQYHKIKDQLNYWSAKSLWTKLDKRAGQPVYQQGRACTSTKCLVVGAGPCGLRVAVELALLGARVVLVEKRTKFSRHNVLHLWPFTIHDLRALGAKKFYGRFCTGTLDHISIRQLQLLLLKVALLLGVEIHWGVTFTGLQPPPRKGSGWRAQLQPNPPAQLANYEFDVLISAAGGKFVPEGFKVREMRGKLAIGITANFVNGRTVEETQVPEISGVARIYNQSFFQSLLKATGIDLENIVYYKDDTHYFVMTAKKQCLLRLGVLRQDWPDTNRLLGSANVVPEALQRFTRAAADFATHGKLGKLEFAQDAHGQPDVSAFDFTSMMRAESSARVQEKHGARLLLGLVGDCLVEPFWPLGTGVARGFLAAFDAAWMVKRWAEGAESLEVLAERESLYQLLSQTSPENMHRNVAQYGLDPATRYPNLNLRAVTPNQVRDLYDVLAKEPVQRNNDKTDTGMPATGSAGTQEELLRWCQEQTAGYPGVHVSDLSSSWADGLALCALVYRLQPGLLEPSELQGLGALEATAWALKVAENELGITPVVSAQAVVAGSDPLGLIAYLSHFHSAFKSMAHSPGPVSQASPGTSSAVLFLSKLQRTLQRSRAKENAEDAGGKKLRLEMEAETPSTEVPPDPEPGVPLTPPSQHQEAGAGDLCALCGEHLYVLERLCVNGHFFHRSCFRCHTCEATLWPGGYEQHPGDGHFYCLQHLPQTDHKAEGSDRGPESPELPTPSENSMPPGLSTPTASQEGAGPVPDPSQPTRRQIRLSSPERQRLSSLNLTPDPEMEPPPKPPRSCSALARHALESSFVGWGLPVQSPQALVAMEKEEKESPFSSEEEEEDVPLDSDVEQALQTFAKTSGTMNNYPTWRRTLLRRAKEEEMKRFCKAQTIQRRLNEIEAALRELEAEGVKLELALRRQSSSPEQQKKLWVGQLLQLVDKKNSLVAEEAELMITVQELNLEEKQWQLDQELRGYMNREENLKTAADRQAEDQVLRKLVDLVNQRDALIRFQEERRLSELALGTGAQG
Assay: ITC

Row | Binder | Kd [nM]
1 | B1 | 923
2 | B2 | 913

— article PMC7219890 (2020)
